# Columns and labels:
# Assay in all cases: cell-based or functional assay
# AMPKa1(h) (human) = AMPKa1(h) (human) (UniProt Q13131)
# Ab1(M351T)(h) (human) = Ab1(M351T)(h) (human) (UniProt P00519)
# Ab1(Q252H)(h) (human) = Ab1(Q252H)(h) (human) (UniProt P00519)
# Ab1(h) (human) = Ab1(h) (human) (UniProt P00519)
# BrSK2(h) (human) = BrSK2(h) (human) (UniProt Q8IWQ3)
# CDK2/cyclinA(h) (human) = CDK2/cyclinA(h) (human) (UniProt P24941)
# CDK2/cyclinE(h) (human) = CDK2/cyclinE(h) (human) (UniProt P24941)
# [1] = biological target: CDK9/cyclin T1(h) (human) (UniProt P50750)
# CHK2(h) (human) = CHK2(h) (human) (UniProt O96017)
# CaMKI(h) (human) = CaMKI(h) (human) (UniProt Q14012)
# CaMKIIβ(h) (human) = CaMKIIβ(h) (human) (UniProt Q13554)
# CaMKIIγ(h) (human) = CaMKIIγ(h) (human) (UniProt Q13555)
# CaMKIIδ(h) (human) = CaMKIIδ(h) (human) (UniProt Q13557)
# DRAK1(h) (human) = DRAK1(h) (human) (UniProt Q9UEE5)
# EGFR(L861Q)(h) (human) = EGFR(L861Q)(h) (human) (UniProt P00533)
# EphA1(h) (human) = EphA1(h) (human) (UniProt P21709)
# EphA3(h) (human) = EphA3(h) (human) (UniProt P29320)
# EphA4(h) (human) = EphA4(h) (human) (UniProt P54764)
# EphB2(h) (human) = EphB2(h) (human) (UniProt P29323)
# FAK(h) (human) = FAK(h) (human) (UniProt Q05397)
# FGFR1(h) (human) = FGFR1(h) (human) (UniProt P11362)
# FGFR4(h) (human) = FGFR4(h) (human) (UniProt P22455)
# Fms(h) (human) = Fms(h) (human) (UniProt P07333)
# HIPK2(h) (human) = HIPK2(h) (human) (UniProt Q9H2X6)
# Hck(h) activated (human) = Hck(h) activated (human) (UniProt P08631)
# IKKα(h) (human) = IKKα(h) (human) (UniProt O15111)
# IRAK4(h) (human) = IRAK4(h) (human) (UniProt Q9NWZ3)
# Itk(h) (human) = Itk(h) (human) (UniProt Q08881)
# LKB1(h) (human) = LKB1(h) (human) (UniProt Q15831)
# Lyn(h) (human) = Lyn(h) (human) (UniProt P07948)
# MST1(h) (human) = MST1(h) (human) (UniProt Q13043)
# MST2(h) (human) = MST2(h) (human) (UniProt Q13188)
# Mer(h) (human) = Mer(h) (human) (UniProt Q12866)
# Met(M1268T)(h) (human) = Met(M1268T)(h) (human) (UniProt P08581)
# MuSK(h) (human) = MuSK(h) (human) (UniProt O15146)
# NEK2(h) (human) = NEK2(h) (human) (UniProt P51955)
# NEK6(h) (human) = NEK6(h) (human) (UniProt Q9HC98)
# PAK2(h) (human) = PAK2(h) (human) (UniProt Q13177)
# PAK5(h) (human) = PAK5(h) (human) (UniProt Q9P286)
# PKCε(h) (human) = PKCε(h) (human) (UniProt Q02156)
# PKCτ(h) (human) = biological target: PKCτ(h) (human)
# PKD2(h) (human) = PKD2(h) (human) (UniProt Q9BZL6)
# PRK2(h) (human) = PRK2(h) (human) (UniProt Q16513)
# ROCK-I(h) (human) = ROCK-I(h) (human) (UniProt Q13464)
# Rsk4(h) (human) = Rsk4(h) (human) (UniProt Q9UK32)
# SAPK3(h) (human) = SAPK3(h) (human) (UniProt P53778)
# SRPK2(h) (human) = SRPK2(h) (human) (UniProt P78362)
# Snk(h) (human) = Snk(h) (human) (UniProt Q9NYY3)
# TAO1(h) (human) = TAO1(h) (human) (UniProt Q7L7X3)
# TLK2(h) (human) = TLK2(h) (human) (UniProt Q86UE8)
# Tie2(h) (human) = Tie2(h) (human) (UniProt Q02763)
# VRK2(h) (human) = VRK2(h) (human) (UniProt Q86Y07)
# ZAP-70(h) (human) = ZAP-70(h) (human) (UniProt P43403)
# c-RAF(h) (human) = c-RAF(h) (human) (UniProt P04049)
# cKit(V654A)(h) (human) = cKit(V654A)(h) (human) (UniProt P10721)
# cSRC(h) (human) = cSRC(h) (human) (UniProt P12931)
# Sequence of CDK9/cyclin T1(h) (human) (P50750 whole entry, chain 1 of 2): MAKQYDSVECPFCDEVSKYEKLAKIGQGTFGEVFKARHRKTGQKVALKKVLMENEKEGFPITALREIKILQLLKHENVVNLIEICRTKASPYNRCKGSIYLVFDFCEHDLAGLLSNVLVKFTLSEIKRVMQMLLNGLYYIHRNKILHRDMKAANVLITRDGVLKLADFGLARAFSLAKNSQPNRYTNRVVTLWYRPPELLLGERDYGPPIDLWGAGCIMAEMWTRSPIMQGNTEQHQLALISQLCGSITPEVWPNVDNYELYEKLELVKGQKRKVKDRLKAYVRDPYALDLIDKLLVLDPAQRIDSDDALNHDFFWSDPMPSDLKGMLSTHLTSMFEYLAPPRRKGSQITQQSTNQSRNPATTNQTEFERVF
# Sequence of CDK9/cyclin T1(h) (human) (O60563 whole entry, chain 2 of 2, further chain): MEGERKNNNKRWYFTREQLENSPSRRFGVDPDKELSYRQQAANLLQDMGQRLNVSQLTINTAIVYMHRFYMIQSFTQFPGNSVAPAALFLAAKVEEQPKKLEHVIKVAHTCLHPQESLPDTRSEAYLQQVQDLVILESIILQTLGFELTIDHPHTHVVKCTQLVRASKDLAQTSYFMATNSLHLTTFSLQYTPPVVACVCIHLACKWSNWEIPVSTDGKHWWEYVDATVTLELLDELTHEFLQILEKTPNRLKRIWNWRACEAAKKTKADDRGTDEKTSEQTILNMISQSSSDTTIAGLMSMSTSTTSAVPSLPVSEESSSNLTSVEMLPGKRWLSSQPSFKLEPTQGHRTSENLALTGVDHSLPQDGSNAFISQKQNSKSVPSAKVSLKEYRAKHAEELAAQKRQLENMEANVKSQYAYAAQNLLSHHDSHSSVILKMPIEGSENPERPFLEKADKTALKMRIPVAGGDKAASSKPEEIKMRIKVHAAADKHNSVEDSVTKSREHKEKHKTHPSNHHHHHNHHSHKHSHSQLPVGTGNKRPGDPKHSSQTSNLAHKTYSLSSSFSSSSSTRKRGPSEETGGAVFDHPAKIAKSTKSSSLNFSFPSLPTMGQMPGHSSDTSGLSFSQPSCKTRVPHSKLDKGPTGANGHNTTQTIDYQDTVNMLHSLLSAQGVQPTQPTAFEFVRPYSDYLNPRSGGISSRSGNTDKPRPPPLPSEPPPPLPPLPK
# Sequence of FGFR1(h) (human) (P11362 456-765 limits assumed): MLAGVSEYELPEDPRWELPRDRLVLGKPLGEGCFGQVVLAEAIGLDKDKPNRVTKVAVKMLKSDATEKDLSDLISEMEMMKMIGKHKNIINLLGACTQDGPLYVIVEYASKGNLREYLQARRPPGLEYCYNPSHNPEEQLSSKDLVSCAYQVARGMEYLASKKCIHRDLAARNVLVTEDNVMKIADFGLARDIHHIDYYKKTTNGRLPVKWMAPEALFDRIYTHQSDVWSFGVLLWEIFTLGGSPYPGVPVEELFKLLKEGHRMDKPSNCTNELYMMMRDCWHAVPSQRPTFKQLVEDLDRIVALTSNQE
# Sequence of HIPK2(h) (human) (Q9H2X6 165-564 limits assumed): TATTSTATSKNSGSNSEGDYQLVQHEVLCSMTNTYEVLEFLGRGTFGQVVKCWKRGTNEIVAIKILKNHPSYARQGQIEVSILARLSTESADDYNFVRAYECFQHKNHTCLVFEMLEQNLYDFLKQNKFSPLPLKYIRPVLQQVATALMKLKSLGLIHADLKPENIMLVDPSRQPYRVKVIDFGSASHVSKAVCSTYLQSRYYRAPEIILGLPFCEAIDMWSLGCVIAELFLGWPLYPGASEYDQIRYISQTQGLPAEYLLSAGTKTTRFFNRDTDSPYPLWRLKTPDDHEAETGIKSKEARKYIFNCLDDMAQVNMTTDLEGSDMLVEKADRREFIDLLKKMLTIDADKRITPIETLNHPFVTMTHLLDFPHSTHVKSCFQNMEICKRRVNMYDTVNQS
# Sequence of EphA4(h) (human) (P54764 570-986 limits assumed): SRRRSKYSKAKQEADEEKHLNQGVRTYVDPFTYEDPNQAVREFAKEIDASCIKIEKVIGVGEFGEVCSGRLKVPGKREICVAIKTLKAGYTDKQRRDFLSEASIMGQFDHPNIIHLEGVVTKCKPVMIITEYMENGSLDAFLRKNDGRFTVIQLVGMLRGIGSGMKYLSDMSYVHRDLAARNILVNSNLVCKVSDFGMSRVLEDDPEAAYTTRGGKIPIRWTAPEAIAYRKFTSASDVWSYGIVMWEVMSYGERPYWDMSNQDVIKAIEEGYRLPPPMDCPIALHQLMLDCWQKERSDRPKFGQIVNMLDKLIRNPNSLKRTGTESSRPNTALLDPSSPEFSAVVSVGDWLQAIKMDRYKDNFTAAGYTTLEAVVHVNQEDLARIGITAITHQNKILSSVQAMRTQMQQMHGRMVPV
# Sequence of ROCK-I(h) (human) (Q13464 17-535 limits assumed): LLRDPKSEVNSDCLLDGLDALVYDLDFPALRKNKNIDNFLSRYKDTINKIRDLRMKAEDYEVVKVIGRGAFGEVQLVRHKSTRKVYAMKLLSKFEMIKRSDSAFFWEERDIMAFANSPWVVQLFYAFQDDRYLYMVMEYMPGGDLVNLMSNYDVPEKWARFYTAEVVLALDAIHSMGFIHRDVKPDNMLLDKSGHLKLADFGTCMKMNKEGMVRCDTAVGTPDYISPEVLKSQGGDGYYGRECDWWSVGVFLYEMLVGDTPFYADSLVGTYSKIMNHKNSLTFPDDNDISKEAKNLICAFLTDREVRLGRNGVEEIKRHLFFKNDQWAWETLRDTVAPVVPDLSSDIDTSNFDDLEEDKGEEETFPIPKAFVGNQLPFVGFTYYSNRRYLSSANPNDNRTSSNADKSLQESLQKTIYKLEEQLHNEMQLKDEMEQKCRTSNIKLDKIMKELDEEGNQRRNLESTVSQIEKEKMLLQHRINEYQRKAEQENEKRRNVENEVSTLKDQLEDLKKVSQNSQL
# Sequence of Rsk4(h) (human) (Q9UK32 whole entry): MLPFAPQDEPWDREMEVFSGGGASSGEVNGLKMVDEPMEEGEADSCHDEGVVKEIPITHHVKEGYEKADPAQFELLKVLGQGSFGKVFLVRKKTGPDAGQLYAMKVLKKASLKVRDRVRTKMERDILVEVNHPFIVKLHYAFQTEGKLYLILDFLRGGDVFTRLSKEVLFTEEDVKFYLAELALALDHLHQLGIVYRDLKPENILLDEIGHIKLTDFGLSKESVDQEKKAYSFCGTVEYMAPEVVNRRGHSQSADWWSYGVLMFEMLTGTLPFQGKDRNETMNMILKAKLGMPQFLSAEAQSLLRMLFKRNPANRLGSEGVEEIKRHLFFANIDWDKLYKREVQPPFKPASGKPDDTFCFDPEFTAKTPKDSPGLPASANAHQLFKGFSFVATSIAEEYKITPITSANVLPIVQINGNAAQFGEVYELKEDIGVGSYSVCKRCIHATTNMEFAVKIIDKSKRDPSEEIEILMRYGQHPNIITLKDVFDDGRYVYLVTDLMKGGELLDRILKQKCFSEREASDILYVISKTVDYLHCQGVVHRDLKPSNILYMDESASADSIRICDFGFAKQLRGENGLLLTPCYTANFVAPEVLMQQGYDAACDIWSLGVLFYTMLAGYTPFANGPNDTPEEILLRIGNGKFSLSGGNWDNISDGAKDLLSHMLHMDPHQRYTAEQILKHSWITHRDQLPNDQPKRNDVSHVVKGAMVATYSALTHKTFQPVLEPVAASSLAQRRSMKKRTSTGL
# Sequence of SAPK3(h) (human) (P53778 whole entry): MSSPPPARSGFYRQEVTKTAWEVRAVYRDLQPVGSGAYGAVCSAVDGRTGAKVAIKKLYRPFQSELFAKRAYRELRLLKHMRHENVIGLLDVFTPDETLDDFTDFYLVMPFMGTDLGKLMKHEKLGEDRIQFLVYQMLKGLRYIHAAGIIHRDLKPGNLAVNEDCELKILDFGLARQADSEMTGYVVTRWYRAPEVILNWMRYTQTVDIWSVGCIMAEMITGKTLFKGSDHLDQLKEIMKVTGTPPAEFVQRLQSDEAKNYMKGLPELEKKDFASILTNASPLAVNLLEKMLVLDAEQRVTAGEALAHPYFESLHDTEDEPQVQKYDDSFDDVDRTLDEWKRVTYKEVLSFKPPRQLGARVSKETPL
# Sequence of Snk(h) (human) (Q9NYY3 whole entry): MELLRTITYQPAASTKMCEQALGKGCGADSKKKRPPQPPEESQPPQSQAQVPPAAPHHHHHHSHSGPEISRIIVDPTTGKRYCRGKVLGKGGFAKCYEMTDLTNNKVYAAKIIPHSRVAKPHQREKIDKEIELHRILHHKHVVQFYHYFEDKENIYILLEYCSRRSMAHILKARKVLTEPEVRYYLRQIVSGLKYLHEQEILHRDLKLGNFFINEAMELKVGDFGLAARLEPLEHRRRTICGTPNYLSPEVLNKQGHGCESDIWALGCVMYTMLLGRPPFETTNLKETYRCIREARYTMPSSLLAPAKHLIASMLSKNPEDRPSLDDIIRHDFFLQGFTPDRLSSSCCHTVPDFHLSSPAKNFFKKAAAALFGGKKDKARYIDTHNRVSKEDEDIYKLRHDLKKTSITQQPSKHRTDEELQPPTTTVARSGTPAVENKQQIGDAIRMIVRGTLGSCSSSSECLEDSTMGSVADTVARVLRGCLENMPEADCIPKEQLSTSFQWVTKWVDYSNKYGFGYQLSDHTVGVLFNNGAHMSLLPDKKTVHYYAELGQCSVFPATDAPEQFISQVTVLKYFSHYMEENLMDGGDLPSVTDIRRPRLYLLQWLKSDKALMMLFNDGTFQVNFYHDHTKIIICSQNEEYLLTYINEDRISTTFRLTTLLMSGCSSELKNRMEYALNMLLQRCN
# Sequence of LKB1(h) (human) (Q15831 whole entry): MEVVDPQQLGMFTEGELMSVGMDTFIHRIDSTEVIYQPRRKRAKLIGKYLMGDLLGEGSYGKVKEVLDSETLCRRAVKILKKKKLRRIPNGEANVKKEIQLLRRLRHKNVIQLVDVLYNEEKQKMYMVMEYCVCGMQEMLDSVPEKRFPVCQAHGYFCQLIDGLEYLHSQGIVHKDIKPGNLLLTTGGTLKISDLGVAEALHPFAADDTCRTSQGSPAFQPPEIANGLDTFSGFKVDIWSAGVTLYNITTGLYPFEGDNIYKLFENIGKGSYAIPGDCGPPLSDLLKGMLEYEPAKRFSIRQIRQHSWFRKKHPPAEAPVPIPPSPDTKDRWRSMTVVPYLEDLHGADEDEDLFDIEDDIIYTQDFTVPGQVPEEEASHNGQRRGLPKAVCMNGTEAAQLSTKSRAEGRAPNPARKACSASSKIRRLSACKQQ
substance,measurement,setting,value
MMI-0100 (peptide),% activity,AMPKa1(h) (human),107%
same,% activity,Ab1(M351T)(h) (human),128%
same,% activity,Ab1(Q252H)(h) (human),105%
same,% activity,Ab1(h) (human),136%
same,% activity,BrSK2(h) (human),129%
same,% activity,CDK2/cyclinA(h) (human),97%
same,% activity,CDK2/cyclinE(h) (human),106%
same,% activity,[1],228%
same,% activity,CHK2(h) (human),104%
same,% activity,CaMKI(h) (human),13%
same,% activity,CaMKIIβ(h) (human),58%
same,% activity,CaMKIIγ(h) (human),106%
same,% activity,CaMKIIδ(h) (human),89%
same,% activity,DRAK1(h) (human),47%
same,% activity,EGFR(L861Q)(h) (human),53%
same,% activity,EphA1(h) (human),114%
same,% activity,EphA3(h) (human),107%
same,% activity,EphA4(h) (human),110%
same,% activity,EphB2(h) (human),68%
same,% activity,FAK(h) (human),98%
same,% activity,FGFR1(h) (human),120%
same,% activity,FGFR4(h) (human),67%
same,% activity,Fms(h) (human),89%
same,% activity,HIPK2(h) (human),98%
same,% activity,Hck(h) activated (human),58%
same,% activity,IKKα(h) (human),108%
same,% activity,IRAK4(h) (human),100%
same,% activity,Itk(h) (human),99%
same,% activity,LKB1(h) (human),111%
same,% activity,Lyn(h) (human),113%
same,% activity,MST1(h) (human),85%
same,% activity,MST2(h) (human),98%
same,% activity,Mer(h) (human),47%
same,% activity,Met(M1268T)(h) (human),114%
same,% activity,MuSK(h) (human),85%
same,% activity,NEK2(h) (human),102%
same,% activity,NEK6(h) (human),109%
same,% activity,PAK2(h) (human),71%
same,% activity,PAK5(h) (human),97%
same,% activity,PKCε(h) (human),102%
same,% activity,PKCτ(h) (human),110%
same,% activity,PKD2(h) (human),84%
same,% activity,PRK2(h) (human),72%
same,% activity,ROCK-I(h) (human),99%
same,% activity,Rsk4(h) (human),99%
same,% activity,SAPK3(h) (human),106%
same,% activity,SRPK2(h) (human),92%
same,% activity,Snk(h) (human),94%
same,% activity,TAO1(h) (human),99%
same,% activity,TLK2(h) (human),113%
same,% activity,Tie2(h) (human),28%
same,% activity,VRK2(h) (human),112%
same,% activity,ZAP-70(h) (human),79%
same,% activity,c-RAF(h) (human),97%
same,% activity,cKit(V654A)(h) (human),69%
same,% activity,cSRC(h) (human),70%

# Reference: patent US20160200782A1
